Experimental findings from the Immune Epitope Database (IEDB) are described below.

The target in one assay is HLA-B*58:01. Put plainly: IEDB peptide-MHC binding, purified MHC/direct/fluorescence; filed as Kd, often an IC50 or EC50 that approximates it; ≥ and ≤ were set here for values at or beyond the usual limits of such assays.
For another assay, the target named is HLA-B*18:01. The assay is described as above.
For a further assay, the target named is HLA-B*07:02. The description is as above.
In another assay the target is HLA-B*40:01. The description is as above.
The next assay deals with HLA-A*31:01. Described as above.
In the next assay the target is HLA-C*12:03. Described as above. The following applies: source organism: West Nile virus.
Another assay addresses HLA-B*15:09. The description is as above. Particulars: source organism: West Nile virus strain PTRoxo.
The next assay has as its target HLA-B*44:02. Described as above.
For the next assay, the target named is HLA-B*57:01. The description is as above.
The target in the next assay is HLA-C*05:01. The assay is described as above.
Another assay has as its target HLA-B*15:01. The description is as above.
In the next assay the target is HLA-B*48:01. The assay is described as above.
Another assay has as its target HLA-B*46:01. Described as above.
The next assay addresses HLA-A*11:01. Described as above.
The next assay addresses HLA-A*03:01. The description is as above.
Another assay addresses HLA-B*27:05. The assay is described as above.
The next assay addresses HLA-A*01:01. The assay is described as above.
The next assay addresses HLA-A*29:02. The description is as above. The following applies: source organism: Yellow fever virus 1899/81.
The target of the next assay is HLA-A*69:01. The description is as above.
A further assay addresses HLA-B*08:01. Put plainly: IEDB peptide-MHC binding, purified MHC/competitive/fluorescence; filed as Kd, often an IC50 or EC50 that approximates it; ≥ and ≤ were set here for values at or beyond the usual limits of such assays.
The target of another assay is HLA-A*68:02. The assay is described as above. Particulars: source organism: Influenza A virus (A/Fort Monmouth/1/1947-mouse adapted(H1N1)).
In another assay the target is HLA-B*15:17. The description is as above.
In a further assay the target is HLA-A*02:06. Described as above.
The next assay has as its target HLA-A*24:02. Put plainly: IEDB peptide-MHC binding, purified MHC/direct/fluorescence; filed as Kd, often an IC50 or EC50 that approximates it; ≥ and ≤ were set here for values at or beyond the usual limits of such assays. Particulars: source organism: Influenza A virus (A/quail/Hong Kong/FY298/00(H9N2)).
Assay [1] deals with HLA-A*02:01. Described as above. The following applies: source organism: Influenza A virus (A/quail/Hong Kong/FY298/00(H9N2)).
The target in the next assay is HLA-A*24:03. Described as above. The following applies: source organism: Influenza A virus (A/quail/Hong Kong/FY298/00(H9N2)).
The target of a further assay is HLA-B*08:02. Described as above. The following applies: source organism: Influenza A virus(A/swine/Henan/5/2004(H9N2)).
The target of a further assay is HLA-A*26:01. The description is as above. Particulars: source organism: Influenza A virus(A/swine/Henan/5/2004(H9N2)).
Another assay addresses HLA-C*07:02. The description is as above. Particulars: source organism: Influenza A virus (A/Fort Monmouth/1/1947-mouse adapted(H1N1)).
The target in a further assay is HLA-B*15:42. Put plainly: IEDB peptide-MHC binding, purified MHC/competitive/fluorescence; filed as Kd, often an IC50 or EC50 that approximates it; ≥ and ≤ were set here for values at or beyond the usual limits of such assays.
In the next assay the target is HLA-B*83:01. The description is as above.
Another assay has as its target HLA-B*45:06. Described as above.
For the next assay, the target named is HLA-C*06:02. Put plainly: IEDB peptide-MHC binding, purified MHC/direct/fluorescence; filed as Kd, often an IC50 or EC50 that approximates it; ≥ and ≤ were set here for values at or beyond the usual limits of such assays. Particulars: source organism: Yellow fever virus.
For a further assay, the target named is HLA-C*14:02. The assay is described as above. The following applies: source organism: Yellow fever virus.
The target of the next assay is HLA-C*15:02. The assay is described as above. The following applies: source organism: Yellow fever virus.
Assay [2] addresses HLA-A*02:01. Put plainly: IEDB peptide-MHC binding, purified MHC/competitive/fluorescence; filed as Kd, often an IC50 or EC50 that approximates it; ≥ and ≤ were set here for values at or beyond the usual limits of such assays. Particulars: source organism: Mycobacterium tuberculosis variant bovis BCG str. Pasteur 1173P2.
The next assay concerns the target HLA-A*30:01. Described as above. The following applies: source organism: Mycobacterium tuberculosis variant bovis BCG str. Pasteur 1173P2.
The next assay deals with HLA-B*39:01. Put plainly: IEDB peptide-MHC binding, purified MHC/direct/fluorescence; filed as Kd, often an IC50 or EC50 that approximates it; ≥ and ≤ were set here for values at or beyond the usual limits of such assays. Particulars: source organism: Mycobacterium tuberculosis str. Haarlem.
The next assay deals with HLA-B*51:01. The assay is described as above. The following applies: source organism: Mycobacterium tuberculosis.
Setting [3] is: source organism: West Nile virus.
The mark [4] stands for this setting: source organism: Yellow fever virus 1899/81.
The mark [5] stands for this setting: source organism: Influenza A virus (A/Fort Monmouth/1/1947-mouse adapted(H1N1)).
Setting [6] is: source organism: Influenza A virus (A/quail/Hong Kong/FY298/00(H9N2)).
[7] abbreviates: source organism: Yellow fever virus.
The mark [8] stands for this setting: source organism: Mycobacterium tuberculosis variant bovis BCG str. Pasteur 1173P2.
Setting [9] is: source organism: Mycobacterium tuberculosis.

Consider FVDVGVSAL, for which the Kd with HLA-B*58:01 (setting [3]), in the assay with HLA-B*18:01 (setting [3]), in the assay with HLA-B*07:02 (setting [3]), in the assay with HLA-B*40:01 (setting [3]), with HLA-A*31:01 (setting [3]) and in the assay with HLA-C*12:03 was not below 20 µM each time. For the same sequence, the dissociation constant Kd (commonly the concentration at which binding is half-saturated) with HLA-B*15:09 is 2.2 µM; with HLA-B*44:02 (setting [3]), not below 20 µM; with HLA-B*57:01 (setting [3]), not below 20 µM; with HLA-C*05:01 (setting [3]), not above 0.001 µM; with HLA-B*15:01 (setting [3]), not below 20 µM; with HLA-B*48:01 (setting [3]), not below 20 µM. Further, the Kd with HLA-B*46:01 (setting [3]), in the assay with HLA-A*11:01 (setting [3]), with HLA-A*03:01 (setting [3]) and with HLA-B*27:05 (setting [3]) was not below 20 µM in each case.
Consider RADEINAIL, for which the Kd with HLA-B*18:01 (setting [4]), with HLA-A*31:01 (setting [4]), with HLA-B*44:02 (setting [4]), with HLA-A*01:01 (setting [4]), in the assay with HLA-A*29:02 and with HLA-B*57:01 (setting [4]) was not below 20 µM each time. Also, the Kd was not above 0.001 µM with HLA-C*05:01 (setting [4]); not below 20 µM in the assay with HLA-B*15:01 (setting [4]); not below 20 µM with HLA-B*46:01 (setting [4]); not below 20 µM in the assay with HLA-A*11:01 (setting [4]); not below 20 µM in the assay with HLA-A*03:01 (setting [4]); not below 20 µM with HLA-B*27:05 (setting [4]). Further, the equilibrium dissociation constant (Kd) with HLA-A*69:01 (setting [4]) is not below 20 µM.
As for SYLIRALTL, the Kd with HLA-B*08:01 (setting [5]) was 1.72 µM; with HLA-A*68:02, 1.19 µM; with HLA-B*15:17 (setting [5]) it was 0.196 µM; in the assay with HLA-A*02:06 (setting [5]), 1.41 µM; in the assay with HLA-B*58:01 (setting [6]), not below 20 µM; in the assay with HLA-B*18:01 (setting [6]), not below 20 µM. In addition, the Kd in the assay with HLA-B*07:02 (setting [6]) was not below 20 µM; in the assay with HLA-A*31:01 (setting [6]), not below 20 µM; with HLA-A*01:01 (setting [6]) it was not below 20 µM; with HLA-A*24:02, 0.0039 µM; with HLA-A*02:01 [1], not below 20 µM; with HLA-B*57:01 (setting [6]) it was not below 20 µM. Moreover, the dissociation constant (Kd) with HLA-A*24:03 is not above 0.001 µM; with HLA-B*15:01 (setting [6]), not below 20 µM; with HLA-B*08:02, not below 20 µM; with HLA-A*26:01, not below 20 µM; with HLA-A*11:01 (setting [6]) it was not below 20 µM; in the assay with HLA-C*07:02, 0.055 µM. In addition, the dissociation constant Kd in the assay with HLA-A*03:01 (setting [6]) and in the assay with HLA-B*27:05 (setting [6]) was not below 20 µM in each case.
Take RWFVRNPFF: the Kd in the assay with HLA-B*15:42 (setting [7]) was not below 5 µM; with HLA-B*83:01 (setting [7]), not below 5 µM; with HLA-B*45:06 (setting [7]), not below 5 µM; in the assay with HLA-C*06:02, not below 20 µM; in the assay with HLA-C*14:02, 0.278 µM; in the assay with HLA-C*15:02, not below 20 µM.
In the case of RPRLHSISF, the dissociation constant Kd in the assay with HLA-B*08:01 (setting [8]) was 0.0159 µM; with HLA-B*15:17 (setting [8]), not below 20 µM; with HLA-B*15:42 (setting [8]), not below 5 µM; with HLA-A*02:01 [2], not below 20 µM; in the assay with HLA-A*02:06 (setting [8]) it was not below 20 µM; with HLA-B*83:01 (setting [8]) it was 0.045 µM. Moreover, the dissociation constant Kd was not below 5 µM with HLA-B*45:06 (setting [8]); not below 20 µM with HLA-A*30:01; not below 20 µM in the assay with HLA-B*39:01; not below 20 µM in the assay with HLA-B*58:01 (setting [9]); not below 20 µM with HLA-B*40:01 (setting [9]); not below 20 µM with HLA-A*31:01 (setting [9]). Besides, the Kd with HLA-A*01:01 (setting [9]) is 1.31 µM; with HLA-B*57:01 (setting [9]), not below 20 µM; in the assay with HLA-B*15:01 (setting [9]), 0.079 µM; with HLA-B*48:01 (setting [9]) it was not below 20 µM; with HLA-B*46:01 (setting [9]), not below 20 µM; with HLA-B*51:01, not below 20 µM. The Kd with HLA-A*11:01 (setting [9]), in the assay with HLA-A*03:01 (setting [9]), with HLA-B*27:05 (setting [9]) and in the assay with HLA-A*69:01 (setting [9]) was not below 20 µM throughout.
